From paper PMC4461266 (PLoS Pathogens, 2015) come the findings set out here.

For this assay, the target named is PR8-PB1-GST (influenza A virus A/Puerto Rico/8/1934 …, UniProt P03431 1-757). As to the kind of experiment: pull-down. Particulars: both partners purified.

B1: TRIM32-HIS (natural protein, human, UniProt Q13049 1-653, looked up)
chain: MAAAAASHLNLDALREVLECPICMESFTEEQLRPKLLHCGHTICRQCLEKLLASSINGVRCPFCSKITRITSLTQLTDNLTVLKIIDTAGLSEAVGLLMCRSCGRRLPRQFCRSCGLVLCEPCREADHQPPGHCTLPVKEAAEERRRDFGEKLTRLRELMGELQRRKAALEGVSKDLQARYKAVLQEYGHEERRVQDELARSRKFFTGSLAEVEKSNSQVVEEQSYLLNIAEVQAVSRCDYFLAKIKQADVALLEETADEEEPELTASLPRELTLQDVELLKVGHVGPLQIGQAVKKPRTVNVEDSWAMEATASAASTSVTFREMDMSPEEVVASPRASPAKQRGPEAASNIQQCLFLKKMGAKGSTPGMFNLPVSLYVTSQGEVLVADRGNYRIQVFTRKGFLKEIRRSPSGIDSFVLSFLGADLPNLTPLSVAMNCQGLIGVTDSYDNSLKVYTLDGHCVACHRSQLSKPWGITALPSGQFVVTDVEGGKLWCFTVDRGSGVVKYSCLCSAVRPKFVTCDAEGTVYFTQGLGLNLENRQNEHHLEGGFSIGSVGPDGQLGRQISHFFSENEDFRCIAGMCVDARGDLIVADSSRKEILHFPKGGGYSVLIREGLTCPVGIALTPKGQLLVLDCWDHCIKIYSYHLRRYSTP
notes: also called HIS-TRIM32; HIS-tagged TRIM32
For B1, the binding result was “binds”.
